# Results taken from publication PMC1201339.
# T1: Cdc6-2 FL (Methanothermobacter thermautotrophicus, UniProt O27636 1-379)
# T1 sequence: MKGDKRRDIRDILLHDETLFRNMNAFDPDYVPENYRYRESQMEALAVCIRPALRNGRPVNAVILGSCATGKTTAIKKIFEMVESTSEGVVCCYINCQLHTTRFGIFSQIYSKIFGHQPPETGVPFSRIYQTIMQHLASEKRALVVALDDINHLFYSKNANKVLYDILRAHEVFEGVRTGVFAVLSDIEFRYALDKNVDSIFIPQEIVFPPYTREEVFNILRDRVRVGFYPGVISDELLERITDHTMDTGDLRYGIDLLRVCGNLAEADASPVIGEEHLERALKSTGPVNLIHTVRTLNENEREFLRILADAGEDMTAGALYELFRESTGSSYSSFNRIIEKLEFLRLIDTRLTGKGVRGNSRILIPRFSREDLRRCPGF
# T2: Cdc6-1 FL (Methanothermobacter thermautotrophicus, UniProt O27463 1-382)
# T2 sequence: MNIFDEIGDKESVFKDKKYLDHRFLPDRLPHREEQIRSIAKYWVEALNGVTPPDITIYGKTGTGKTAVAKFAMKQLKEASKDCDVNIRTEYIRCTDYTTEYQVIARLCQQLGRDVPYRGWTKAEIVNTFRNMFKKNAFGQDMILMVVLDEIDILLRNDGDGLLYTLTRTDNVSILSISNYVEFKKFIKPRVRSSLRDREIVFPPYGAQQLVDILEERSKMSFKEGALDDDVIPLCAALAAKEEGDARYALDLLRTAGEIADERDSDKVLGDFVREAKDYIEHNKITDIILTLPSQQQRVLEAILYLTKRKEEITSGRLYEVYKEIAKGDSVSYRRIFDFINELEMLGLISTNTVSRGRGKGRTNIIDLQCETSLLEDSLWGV
# T3: Cdc6-2 WH (Methanothermobacter thermautotrophicus, UniProt O27636 292-379)
# T3 sequence: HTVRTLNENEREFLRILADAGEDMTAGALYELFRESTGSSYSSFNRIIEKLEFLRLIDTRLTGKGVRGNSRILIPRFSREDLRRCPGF
# T4: Cdc6-1 WH (Methanothermobacter thermautotrophicus, UniProt O27463 287-382)
# T4 sequence: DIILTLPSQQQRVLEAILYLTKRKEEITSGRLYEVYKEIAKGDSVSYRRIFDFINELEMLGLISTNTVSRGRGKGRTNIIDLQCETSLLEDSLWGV
# B1: MR163/MR164 45 bp dsDNA (dsDNA)
# DNA 1: TACATATGTACATGGGTACATATGTACATGGGTACATATGTACAT
# DNA 2: ATGTACATATGTACCCATGTACATATGTACCCATGTACATATGTA
# What was measured:
# Test in all cases: filter binding
# Cdc6-2 FL = target: T1, Cdc6-2 FL
# Cdc6-1 FL = target: T2, Cdc6-1 FL
# Cdc6-2 WH = target: T3, Cdc6-2 WH
# Cdc6-1 WH = target: T4, Cdc6-1 WH
binder,measurement,setting,value
TACATATGTACATGGGTACATATGTACATGGGTACATATGTACAT (ssDNA) [MR163 45mer ssDNA],binding result,Cdc6-2 FL,binds
same,binding result,Cdc6-1 FL,no binding
B1,binding result,Cdc6-2 FL,binds
same,binding result,Cdc6-2 WH,no binding
same,binding result,Cdc6-1 WH,no binding
